From patent US20120195900A1 (AbbVie / Abbott, published 2012) come the findings set out here.

Assay [1] has as its target T1, recombinant human IL-18 (human, UniProt Q14116 37-193). Nature of the assay: cell-based or functional assay.
Assay [2] addresses T1, recombinant human IL-18. Put plainly: cell-based or functional assay. The source holds these as a separate data set.
In assay [3] the target is T2, human IL-12 (human, UniProt P29459 23-219; P29460 23-328, biotinylated in the ELISA (site not stated)).
T2 construct: The ELISA paragraph says only 'Biotinylated IL-12'; the bioassay says 'human IL-12' / 'rhIL-12'; also called rhIL-12; Biotinylated IL-12
T2 sequence (looked up) 1: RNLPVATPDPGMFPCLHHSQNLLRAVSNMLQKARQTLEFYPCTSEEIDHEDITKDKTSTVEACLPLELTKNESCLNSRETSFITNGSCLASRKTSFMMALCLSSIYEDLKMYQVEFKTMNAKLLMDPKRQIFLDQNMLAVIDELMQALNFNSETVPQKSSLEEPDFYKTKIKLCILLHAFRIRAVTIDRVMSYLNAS
T2 sequence (looked up) 2: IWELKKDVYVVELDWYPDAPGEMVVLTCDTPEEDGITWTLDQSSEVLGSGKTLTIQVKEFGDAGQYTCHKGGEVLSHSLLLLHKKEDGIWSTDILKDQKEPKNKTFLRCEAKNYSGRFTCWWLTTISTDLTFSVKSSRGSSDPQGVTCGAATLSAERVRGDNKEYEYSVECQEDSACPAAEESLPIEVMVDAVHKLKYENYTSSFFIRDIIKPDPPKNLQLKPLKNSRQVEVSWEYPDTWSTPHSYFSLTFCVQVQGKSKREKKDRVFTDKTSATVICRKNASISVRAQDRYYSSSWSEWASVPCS
Nature of the assay: ELISA, biotinylated IL-12 on streptavidin plates, anti-human IgG detection (column head: ED50).

The target in assay [4] is T2, human IL-12. Put plainly: cell-based or functional assay.
The next assay concerns the target hIL-13 (human, UniProt P35225 35-146, limits assumed). Nature of the assay: cell-based or functional assay.

Like-named read-outs stand apart in the source and are kept apart here.

hIL-13, sequence (P35225 35-146 limits assumed): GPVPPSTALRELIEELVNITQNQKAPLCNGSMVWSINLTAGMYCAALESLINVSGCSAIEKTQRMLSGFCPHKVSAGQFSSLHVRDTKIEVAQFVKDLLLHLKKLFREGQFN

B1: mAb 2.5 (anti-hIL-18 monoclonal antibody) (antibody, V domains shown)
VH: EVQLVQSGTEVKKPGESLKISCKGSGYTVTSYWIGWVRQMPGKGLEWMGFIYPGDSETRYSPTFQGQVTISADKSFNTAFLQWSSLKASDTAMYYCARVGSGWYPYTFDIWGQGTMVTVSS
VL: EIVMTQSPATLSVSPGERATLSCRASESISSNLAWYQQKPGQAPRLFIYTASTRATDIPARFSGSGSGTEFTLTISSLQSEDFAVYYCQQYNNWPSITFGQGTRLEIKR
With B1, the “neutralization potency (IC50, nM), KG-1 bioassay: IFN-γ production” value with recombinant human IL-18 [1] came to 0.1 nM; in the assay with recombinant human IL-18 [2] it was 0.58 nM.

B2: 1D4.1 (anti-hIL-12 monoclonal antibody) (antibody, V domains shown)
VH: EVTLRESGPALVKPTQTLTLTCTFSGFSLSKSVMGVSWIRQPPGKALEWLAHIYWDDDKYYNPSLKSRLTISKDTSKNQVVLTMTNMDPVDTATYYCARRGIRSAMDYWGQGTTVTVSS
VL: DIVMTQSPDSLAVSLGERATINCKASQSVSNDVAWYQQKPGQPPKLLIYYASNRYTGVPDRFSGSGSGTDFTLTISSLQAEDVAVYYCQQDYNSPWTFGGGTKVEIKR
notes: also called Control monoclonal antibody; parental monoclonal antibody 1D4.1
As to B2, a half-maximal response with human IL-12 [3] (EC50) required 0.38 nM. In addition, the “neutralization potency (IC50, nM), human IL-12 bioassay: IFN-γ release from PHA blast cells” value in the assay with human IL-12 [4] is 0.624 nM.

B3: 13C5.5L3F (anti-IL-13 monoclonal antibody) (antibody, V domains shown)
VH: EVTLRESGPGLVKPTQTLTLTCTLYGFSLSTSDMGVDWIRQPPGKGLEWLAHIWWDDVKRYNPALKSRLTISKDTSKNQVVLKLTSVDPVDTATYYCARTVSSGYIYYAMDYWGQGTLVTVSS
VL: DIQMTQSPSSLSASVGDRVTISCRASQDIRNYLNWYQQKPGKAPKLLIFYTSKLHSGVPSRFSGSGSGTDYTLTISSLQPEDIATYYCQQGLTPPLTFGGGTKVEIKR
Take B3: the “neutralization potency (IC50, nM), A-549 bioassay: TARC production” value with hIL-13 stood at 0.05 nM.

The EC50 is the midpoint of the concentration-response curve.
